Reference: the supplement of paper PMC10567573

B1: PRKX (parent)
chain: KLLVVDRTRRLGNMKNGANDVKHH

Variants of: B1
Assay: protein stability index of a GFP-peptide fusion (GPS, HEK-293T) (PSI 1-6); higher = more stable
Conditions: c terminus: a fixed tail appended
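Note: lentivirally expressed fusions sorted by FACS into six bins by GFP to DsRed ratio, PSI derived from sequencing read proportions per bin multiplied by bin number.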

Row | Variant | protein stability index
1 | KLLVVDRTRTLGNMKNGANDVKHH [R10T] | 3.83
2 | KLLVVDRTRVLGNMKNGANDVKHH [R10V] | 3.08
3 | KLLVVDRTRGLGNMKNGANDVKHH [R10G] | 3.35
4 | KLLVVDRTRALGNMKNGANDVKHH [R10A] | 3.06
5 | KLLVVDRTRLLGNMKNGANDVKHH [R10L] | 2.82
6 | KLLVVDRTRSLGNMKNGANDVKHH [R10S] | 4.15
7 | KLLVVDRTRFLGNMKNGANDVKHH [R10F] | 2.31
8 | KLLVVDRTRNLGNMKNGANDVKHH [R10N] | 3.4
9 | KLLVVDRTRMLGNMKNGANDVKHH [R10M] | 2.85
10 | KLLVVDRTRDLGNMKNGANDVKHH [R10D] | 3.68
11 | KLLVVDRTRCLGNMKNGANDVKHH [R10C] | 2.61
12 | KLLVVDRTRILGNMKNGANDVKHH [R10I] | 2.94
13 | KLLVVDRTRELGNMKNGANDVKHH [R10E] | 4.05
14 | KLLVVDRTRHLGNMKNGANDVKHH [R10H] | 3.04
15 | KLLVVDRTRQLGNMKNGANDVKHH [R10Q] | 3.65
16 | KLLVVDRTRYLGNMKNGANDVKHH [R10Y] | 2.72
17 | KLLVVDRTRKLGNMKNGANDVKHH [R10K] | 2.84
18 | KLLVVDRTRWLGNMKNGANDVKHH [R10W] | 2.8
19 | KLLVVDRTRPLGNMKNGANDVKHH [R10P] | 3.43
20 | KLLVVDRTQRLGNMKNGANDVKHH [R9Q] | 3.38
21 | KLLVVDRTWRLGNMKNGANDVKHH [R9W] | 2.12
22 | KLLVVDRTMRLGNMKNGANDVKHH [R9M] | 2.99
23 | KLLVVDRTERLGNMKNGANDVKHH [R9E] | 3.5
24 | KLLVVDRTPRLGNMKNGANDVKHH [R9P] | 3.45

Row | Variant | protein stability index
25 | KLLVVDRTDRLGNMKNGANDVKHH [R9D] | 3.4
26 | KLLVVDRTNRLGNMKNGANDVKHH [R9N] | 2.81
27 | KLLVVDRTFRLGNMKNGANDVKHH [R9F] | 2.76
28 | KLLVVDRTHRLGNMKNGANDVKHH [R9H] | 3.07
29 | KLLVVDRTARLGNMKNGANDVKHH [R9A] | 3.11
30 | KLLVVDRTKRLGNMKNGANDVKHH [R9K] | 2.99
31 | KLLVVDRTSRLGNMKNGANDVKHH [R9S] | 3.33
32 | KLLVVDRTIRLGNMKNGANDVKHH [R9I] | 2.73
33 | KLLVVDRTVRLGNMKNGANDVKHH [R9V] | 2.6
34 | KLLVVDRTGRLGNMKNGANDVKHH [R9G] | 3.13
35 | KLLVVDRTLRLGNMKNGANDVKHH [R9L] | 2.69
36 | KLLVVDRTTRLGNMKNGANDVKHH [R9T] | 3.21
37 | KLLVVDRTCRLGNMKNGANDVKHH [R9C] | 2.21
38 | KLLVVDRTYRLGNMKNGANDVKHH [R9Y] | 2.63
39 | KLLVVDRTRRLGQMKNGANDVKHH [N13Q] | 2.6
40 | KLLVVDRTRRLGMMKNGANDVKHH [N13M] | 2.51
41 | KLLVVDRTRRLGLMKNGANDVKHH [N13L] | 2.31
42 | KLLVVDRTRRLGFMKNGANDVKHH [N13F] | 2.02
43 | KLLVVDRTRRLGHMKNGANDVKHH [N13H] | 2.81
44 | KLLVVDRTRRLGRMKNGANDVKHH [N13R] | 2.75
45 | KLLVVDRTRRLGGMKNGANDVKHH [N13G] | 2.84
46 | KLLVVDRTRRLGPMKNGANDVKHH [N13P] | 2.75
47 | KLLVVDRTRRLGIMKNGANDVKHH [N13I] | 2.54
48 | KLLVVDRTRRLGKMKNGANDVKHH [N13K] | 2.81

Row | Variant | protein stability index
49 | KLLVVDRTRRLGTMKNGANDVKHH [N13T] | 3.09
50 | KLLVVDRTRRLGCMKNGANDVKHH [N13C] | 2.62
51 | KLLVVDRTRRLGAMKNGANDVKHH [N13A] | 3.44
52 | KLLVVDRTRRLGEMKNGANDVKHH [N13E] | 3.6
53 | KLLVVDRTRRLGSMKNGANDVKHH [N13S] | 2.91
54 | KLLVVDRTRRLGDMKNGANDVKHH [N13D] | 3.46
55 | KLLVVDRTRRTGNMKNGANDVKHH [L11T] | 3.47
56 | KLLVVDRTRRDGNMKNGANDVKHH [L11D] | 3.84
57 | KLLVVDRTRRAGNMKNGANDVKHH [L11A] | 3.23
58 | KLLVVDRTRRHGNMKNGANDVKHH [L11H] | 3.64
59 | KLLVVDRTRRYGNMKNGANDVKHH [L11Y] | 3.1
60 | KLLVVDRTRRQGNMKNGANDVKHH [L11Q] | 3.42
61 | KLLVVDRTRRFGNMKNGANDVKHH [L11F] | 2.93
62 | KLLVVDRTRRVGNMKNGANDVKHH [L11V] | 3.09
63 | KLLVVDRTRREGNMKNGANDVKHH [L11E] | 3.7
64 | KLLVVDRTRRKGNMKNGANDVKHH [L11K] | 2.93
65 | KLLVVDRTRRSGNMKNGANDVKHH [L11S] | 3.27
66 | KLLVVDRTRRWGNMKNGANDVKHH [L11W] | 2.67
67 | KLLVVDRTRRCGNMKNGANDVKHH [L11C] | 2.57
68 | KLLVVDRTRRRGNMKNGANDVKHH [L11R] | 3.65
69 | KLLVVDRTRRNGNMKNGANDVKHH [L11N] | 3.6
70 | KLLVVDRTRRIGNMKNGANDVKHH [L11I] | 3.22
71 | KLLVVDRTRRGGNMKNGANDVKHH [L11G] | 3.21
72 | KLLVVDRTRRPGNMKNGANDVKHH [L11P] | 3.57

Row | Variant | protein stability index
73 | KLLVVDRTRRMGNMKNGANDVKHH [L11M] | 2.77
74 | KLLVVDRYRRLGNMKNGANDVKHH [T8Y] | 2.67
75 | KLLVVDRWRRLGNMKNGANDVKHH [T8W] | 2.78
76 | KLLVVDRTRRLWNMKNGANDVKHH [G12W] | 2.19
77 | KLLVVDRTRRLINMKNGANDVKHH [G12I] | 2.04
78 | KLLVVDRTRRLDNMKNGANDVKHH [G12D] | 3.12
79 | KLLVVDRTRRLPNMKNGANDVKHH [G12P] | 3.19
80 | KLLVVDRTRRLRNMKNGANDVKHH [G12R] | 2.67
81 | KLLVVDRTRRLMNMKNGANDVKHH [G12M] | 2.24
82 | KLLVVDRTRRLYNMKNGANDVKHH [G12Y] | 2.5
83 | KLLVVDRTRRLANMKNGANDVKHH [G12A] | 2.84
84 | KLLVVDRTRRLTNMKNGANDVKHH [G12T] | 2.95
85 | KLLVVDRTRRLQNMKNGANDVKHH [G12Q] | 3.19
86 | KLLVVDRTRRLFNMKNGANDVKHH [G12F] | 2.51
87 | KLLVVDRTRRLLNMKNGANDVKHH [G12L] | 2.83
88 | KLLVVDRTRRLCNMKNGANDVKHH [G12C] | 2.84
89 | KLLVVDRTRRLKNMKNGANDVKHH [G12K] | 2.48
90 | KLLVVDRTRRLNNMKNGANDVKHH [G12N] | 2.6
91 | KLLVVDRTRRLVNMKNGANDVKHH [G12V] | 2.67
92 | KLLVVDRTRRLSNMKNGANDVKHH [G12S] | 3.02
93 | KLLVVDRTRRLHNMKNGANDVKHH [G12H] | 3
94 | KLLVVDRTRRLENMKNGANDVKHH [G12E] | 3.38
